Legend:
[1] = biological target: T1, CUB_C (CUB module and C-terminal peptide from human TSG-6), wild type (human, UniProt P98066 128-277); assay: SPR
T1 chain: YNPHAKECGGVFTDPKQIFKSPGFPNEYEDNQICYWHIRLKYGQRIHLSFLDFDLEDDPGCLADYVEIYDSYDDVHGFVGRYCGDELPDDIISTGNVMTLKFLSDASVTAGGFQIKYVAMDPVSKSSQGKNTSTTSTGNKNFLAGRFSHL

[2] = biological target: T2, Full-length human TSG-6 (rhTSG-6), wild type (human, UniProt P98066 18-277); assay: SPR; + 10 mM EDTA
[3] = biological target: T2, Full-length human TSG-6 (rhTSG-6), wild …; assay: SPR; + 10 mM EDTA; remark: listed apart in the source

B1: Recombinant human heavy chain 1 (rHC1) of inter-alpha-inhibitor, wild type (natural protein)
chain: SKSSEKRQAVDTAVDGVFIRSLKVNCKVTSRFAHYVVTSQVVNTANEAREVAFDLEIPKTAFISDFAVTADGNAFIGDIKDKVTAWKQYRKAAISGENAGLVRASGRTMEQFTIHLTVNPQSKVTFQLTYEEVLKRNHMQYEIVIKVKPKQLVHHFEIDVDIFEPQGISKLDAQASFLPKELAAQTIKKSFSGKKGHVLFRPTVSQQQSCPTCSTSLLNGHFKVTYDVSRDKICDLLVANNHFAHFFAPQNLTNMNKNVVFVIDISGSMRGQKVKQTKEALLKILGDMQPGDYFDLVLFGTRVQSWKGSLVQASEANLQAAQDFVRGFSLDEATNLNGGLLRGIEILNQVQESLPELSNHASILIMLTDGDPTEGVTDRSQILKNVRNAIRGRFPLYNLGFGHNVDFNFLEVMSMENNGRAQRIYEDHDATQQLQGFYSQVAKPLLVDVDLQYPQDAVLALTQNHHKQYYEGSEIVVAGRIADNKQSSFKADVQAHGEGQEFSITCLVDEEEMKKLLRERGHMLENHVERLWAYLTIQELLAKRMKVDREERANLSSQALQMSLDYGFVTPLTSMSIRGMADQDGLKPTIDKPSEDSPPLEMLGPRRTFVLSALQPSPTHSSSNTQRLPDRVTGVDTD
- koff [1]: 0.0004 s⁻¹
- Kd [2]: 5.1 nM
- koff [3]: 0.0051 s⁻¹
